This is an account of results in the supplement of paper PMC9112550, “Optimization of the antimicrobial peptide Bac7 by deep mutational scanning” (BMC Biology, 2022).

For this data set, the system named is Escherichia coli TOP10. The experiment in a line: shrunken log2 fold change of peptide-encoding DNA abundance (4.5 h post-induction vs induction); higher = less antimicrobial activity (less host growth inhibition). The conditions noted are these: time post-induction: 4.5 h; library: site-saturation at positions 5, 18, 19, 20.
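Also: peptides expressed intracellularly from a pBAD plasmid library in pooled LB shake-flask culture, induced with 0.3% L-arabinose, DNA abundance read by NGS, three biological replicates, DESeq2 with apeglm shrinkage.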

For RRIRPRPPRLPRPRPRPKDWPRP, the “shrunken log2 fold change” value was 0.342.
As to RRIRERPPRLPRPRPRPRRDPRP, the “shrunken log2 fold change” value came out at 0.0233.
Take RRIRPRPPRLPRPRPRPMGDPRP: the “shrunken log2 fold change” value turned out to be 0.234.
Consider RRIRARPPRLPRPRPRPWDQPRP, for which the “shrunken log2 fold change” value was 0.353.
For RRIRQRPPRLPRPRPRPDLAPRP, the “shrunken log2 fold change” value was -0.0142.
Turning to RRIRGRPPRLPRPRPRPMQYPRP, the “shrunken log2 fold change” value was -0.21.
With RRIRSRPPRLPRPRPRPTRCPRP, the “shrunken log2 fold change” value was determined as 0.264.
Regarding RRIRYRPPRLPRPRPRPPMPPRP, the “shrunken log2 fold change” value stood at 0.0328.
As for RRIRKRPPRLPRPRPRPITHPRP, the “shrunken log2 fold change” value is -0.0971.
For the sequence RRIRGRPPRLPRPRPRPLDAPRP, the “shrunken log2 fold change” value was 0.969.
Consider RRIRPRPPRLPRPRPRPNEHPRP, for which the “shrunken log2 fold change” value was -0.263.
Consider RRIRPRPPRLPRPRPRPSCAPRP, for which the “shrunken log2 fold change” value was 0.0332.
For RRIRRRPPRLPRPRPRPDYNPRP, the “shrunken log2 fold change” value is -0.0973.
As to RRIRERPPRLPRPRPRPLVGPRP, the “shrunken log2 fold change” value was -0.198.
Next, RRIRLRPPRLPRPRPRPKCCPRP: -0.166; RRIRDRPPRLPRPRPRPCFEPRP: 0.708.
With RRIRERPPRLPRPRPRPQWQPRP, the “shrunken log2 fold change” value was -0.109.
Next, RRIRTRPPRLPRPRPRPTEPPRP: 0.045; RRIRKRPPRLPRPRPRPNQFPRP: 0.103.
Next, RRIRWRPPRLPRPRPRPTMYPRP: 0.00431.
RRIRLRPPRLPRPRPRPIFQPRP: the “shrunken log2 fold change” value is -0.192.
For RRIRTRPPRLPRPRPRPRKTPRP, the “shrunken log2 fold change” value turned out to be 0.111.
As for RRIRTRPPRLPRPRPRPCWAPRP, the “shrunken log2 fold change” value is -0.0904.
For RRIRNRPPRLPRPRPRPPAKPRP, the “shrunken log2 fold change” value was 0.521.
Turning to RRIRERPPRLPRPRPRPWHWPRP, the “shrunken log2 fold change” value was -0.0299.
On to RRIRVRPPRLPRPRPRPRCFPRP, for which the “shrunken log2 fold change” value amounted to 0.05.
As for RRIRLRPPRLPRPRPRPKWDPRP, the “shrunken log2 fold change” value worked out at 0.184.
Take RRIRPRPPRLPRPRPRPLLPPRP: the “shrunken log2 fold change” value was -0.0532.
To RRIRQRPPRLPRPRPRPCWAPRP belongs -0.139; to RRIRKRPPRLPRPRPRPRLSPRP, 0.0586.
As to RRIRLRPPRLPRPRPRPHKGPRP, the “shrunken log2 fold change” value is -0.0262.
As for RRIRGRPPRLPRPRPRPFDQPRP, the “shrunken log2 fold change” value was found to be 0.2.
To RRIRMRPPRLPRPRPRPMDTPRP belongs -0.00187; to RRIRTRPPRLPRPRPRPADMPRP, -0.431.
Take RRIRARPPRLPRPRPRPFWSPRP: the “shrunken log2 fold change” value turned out to be 0.061.
Consider RRIRCRPPRLPRPRPRPKWCPRP, for which the “shrunken log2 fold change” value is -0.105.
Turning to RRIRCRPPRLPRPRPRPLNKPRP, the “shrunken log2 fold change” value is -0.695.
Next, RRIRHRPPRLPRPRPRPWQHPRP: -0.0597; RRIRCRPPRLPRPRPRPDSVPRP: -0.894.
In the case of RRIRARPPRLPRPRPRPPHYPRP, the “shrunken log2 fold change” value stood at 0.857.
Turning to RRIRMRPPRLPRPRPRPQCRPRP, the “shrunken log2 fold change” value stood at 0.253.
Turning to RRIRPRPPRLPRPRPRPYPPPRP, the “shrunken log2 fold change” value is -0.537.
As for RRIRCRPPRLPRPRPRPAYQPRP, the “shrunken log2 fold change” value was -0.0687.
For RRIRWRPPRLPRPRPRPQRIPRP, the “shrunken log2 fold change” value was 0.107.
RRIRDRPPRLPRPRPRPRDAPRP: the “shrunken log2 fold change” value is 0.59.
Next, RRIRLRPPRLPRPRPRPGRFPRP: 0.226; RRIRVRPPRLPRPRPRPTDVPRP: 0.0418; RRIRARPPRLPRPRPRPRAGPRP: 0.896.
Next, RRIRQRPPRLPRPRPRPFELPRP: -0.113; RRIRDRPPRLPRPRPRPESQPRP: -0.0206; RRIRGRPPRLPRPRPRPLVEPRP: 1.2.
Regarding RRIRMRPPRLPRPRPRPLYVPRP, the “shrunken log2 fold change” value was -0.111.
On to RRIRCRPPRLPRPRPRPAHKPRP, for which the “shrunken log2 fold change” value is -0.0944.
On to RRIRARPPRLPRPRPRPGLFPRP, for which the “shrunken log2 fold change” value amounted to 0.601.
Turning to RRIRYRPPRLPRPRPRPPSGPRP, the “shrunken log2 fold change” value was determined as 0.0974.
For RRIRHRPPRLPRPRPRPSESPRP, the “shrunken log2 fold change” value was -0.232.
Take RRIRHRPPRLPRPRPRPKDFPRP: the “shrunken log2 fold change” value was -0.0494.
As for RRIRTRPPRLPRPRPRPIAMPRP, the “shrunken log2 fold change” value was -0.387.
On to RRIRVRPPRLPRPRPRPQRTPRP, for which the “shrunken log2 fold change” value is -0.0863.
Turning to RRIRNRPPRLPRPRPRPMCRPRP, the “shrunken log2 fold change” value was -0.0579.
Next, RRIRTRPPRLPRPRPRPAPQPRP: 0.0544.
In the case of RRIRNRPPRLPRPRPRPGQQPRP, the “shrunken log2 fold change” value is -0.0199.
Regarding RRIRFRPPRLPRPRPRPDTFPRP, the “shrunken log2 fold change” value was -0.144.
To RRIRARPPRLPRPRPRPNKAPRP belongs 0.00219; to RRIRMRPPRLPRPRPRPAHIPRP, -0.161.
As for RRIRDRPPRLPRPRPRPPESPRP, the “shrunken log2 fold change” value came out at 0.822.
To RRIRARPPRLPRPRPRPEISPRP belongs 0.81.
Next, RRIRERPPRLPRPRPRPNATPRP: 0.287; RRIRCRPPRLPRPRPRPSLIPRP: -0.286.
With RRIRDRPPRLPRPRPRPWPEPRP, the “shrunken log2 fold change” value is -0.0683.
In the case of RRIRKRPPRLPRPRPRPMQYPRP, the “shrunken log2 fold change” value was -0.0135.
To RRIRQRPPRLPRPRPRPTVGPRP belongs -0.161; to RRIRIRPPRLPRPRPRPMDYPRP, -0.00141.
With RRIRRRPPRLPRPRPRPSIYPRP, the “shrunken log2 fold change” value is -0.449.
Turning to RRIRWRPPRLPRPRPRPYFFPRP, the “shrunken log2 fold change” value is -0.245.
As to RRIRVRPPRLPRPRPRPEAKPRP, the “shrunken log2 fold change” value turned out to be 0.293.
In the case of RRIRWRPPRLPRPRPRPGRRPRP, the “shrunken log2 fold change” value was determined as 0.106.
To RRIRTRPPRLPRPRPRPSYIPRP belongs -0.511; to RRIRVRPPRLPRPRPRPLAIPRP, 0.0184.
Turning to RRIRARPPRLPRPRPRPARIPRP, the “shrunken log2 fold change” value is 0.169.
Consider RRIRFRPPRLPRPRPRPGNMPRP, for which the “shrunken log2 fold change” value was -0.198.
For the sequence RRIRLRPPRLPRPRPRPHMTPRP, the “shrunken log2 fold change” value was -0.466.
With RRIRNRPPRLPRPRPRPTTYPRP, the “shrunken log2 fold change” value was -0.228.
For the sequence RRIRQRPPRLPRPRPRPHFMPRP, the “shrunken log2 fold change” value was -0.0158.
Take RRIRPRPPRLPRPRPRPSKFPRP: the “shrunken log2 fold change” value is -0.494.
For RRIRMRPPRLPRPRPRPPKQPRP, the “shrunken log2 fold change” value came to 0.742.
As to RRIRYRPPRLPRPRPRPTNSPRP, the “shrunken log2 fold change” value was -0.342.
For RRIRDRPPRLPRPRPRPMTMPRP, the “shrunken log2 fold change” value is -0.00418.
Take RRIRLRPPRLPRPRPRPFLCPRP: the “shrunken log2 fold change” value was -0.353.
With RRIRNRPPRLPRPRPRPHIKPRP, the “shrunken log2 fold change” value is -0.595.
Turning to RRIRTRPPRLPRPRPRPVMVPRP, the “shrunken log2 fold change” value is -0.0537.
Next, RRIRRRPPRLPRPRPRPKIYPRP: -0.127.
Regarding RRIRRRPPRLPRPRPRPNHRPRP, the “shrunken log2 fold change” value is -0.0368.
Next, RRIRHRPPRLPRPRPRPRCVPRP: 0.548; RRIRPRPPRLPRPRPRPKMHPRP: 0.153.
In the case of RRIRLRPPRLPRPRPRPNREPRP, the “shrunken log2 fold change” value is -0.118.
In the case of RRIRIRPPRLPRPRPRPSFKPRP, the “shrunken log2 fold change” value was -0.494.
Next, RRIRKRPPRLPRPRPRPLGLPRP: 0.159; RRIRSRPPRLPRPRPRPFRTPRP: -0.318.
Turning to RRIRARPPRLPRPRPRPMGNPRP, the “shrunken log2 fold change” value is -0.101.
Turning to RRIRARPPRLPRPRPRPFKIPRP, the “shrunken log2 fold change” value is -0.0575.
Consider RRIRMRPPRLPRPRPRPKTFPRP, for which the “shrunken log2 fold change” value stood at 0.0371.
In the case of RRIRDRPPRLPRPRPRPQEHPRP, the “shrunken log2 fold change” value is -0.0802.
With RRIRKRPPRLPRPRPRPSFVPRP, the “shrunken log2 fold change” value was -0.174.
In the case of RRIRDRPPRLPRPRPRPAKDPRP, the “shrunken log2 fold change” value is -0.0015.
In the case of RRIRHRPPRLPRPRPRPVRGPRP, the “shrunken log2 fold change” value came out at 0.328.
Next, RRIRNRPPRLPRPRPRPSDAPRP: 0.0594.
RRIRLRPPRLPRPRPRPYAPPRP: the “shrunken log2 fold change” value is -0.329.
With RRIRYRPPRLPRPRPRPFCTPRP, the “shrunken log2 fold change” value is -0.425.
Turning to RRIRTRPPRLPRPRPRPGWSPRP, the “shrunken log2 fold change” value came out at 0.354.
RRIRSRPPRLPRPRPRPPAEPRP: the “shrunken log2 fold change” value worked out at 2.3.
In the case of RRIRIRPPRLPRPRPRPLSFPRP, the “shrunken log2 fold change” value is -0.687.
Consider RRIRRRPPRLPRPRPRPCWTPRP, for which the “shrunken log2 fold change” value was -0.13.
Regarding RRIRKRPPRLPRPRPRPWINPRP, the “shrunken log2 fold change” value was -0.0449.
To RRIRRRPPRLPRPRPRPEFDPRP belongs 0.486; to RRIRIRPPRLPRPRPRPTHDPRP, -0.0575.
Next, RRIRYRPPRLPRPRPRPNMCPRP: 0.00841.
As for RRIRHRPPRLPRPRPRPKVQPRP, the “shrunken log2 fold change” value amounted to 0.146.
In the case of RRIRLRPPRLPRPRPRPMGRPRP, the “shrunken log2 fold change” value was 0.0605.
With RRIRARPPRLPRPRPRPSPMPRP, the “shrunken log2 fold change” value was 0.173.
For RRIRVRPPRLPRPRPRPQMAPRP, the “shrunken log2 fold change” value is -0.302.
Consider RRIRPRPPRLPRPRPRPSVEPRP, for which the “shrunken log2 fold change” value is -0.00032.
For the sequence RRIRPRPPRLPRPRPRPVNPPRP, the “shrunken log2 fold change” value was 0.0675.
As to RRIRLRPPRLPRPRPRPQGAPRP, the “shrunken log2 fold change” value is -0.145.
With RRIRGRPPRLPRPRPRPEMEPRP, the “shrunken log2 fold change” value is -0.0341.
